From patent publication US20240058465A1 (SUTRO BIOPHARMA, published 2024)

Columns and labels:
[1] = target: receptor tyrosine kinase orphan receptor 1 (ROR1) on Ntera-2 cells (human, UniProt Q01973 30-937); assay: cell-based or functional assay
[2] = target: T1, human ROR1 (hROR1) expressed on cells (human, UniProt Q01973 30-937); assay: cell-based or functional assay
[3] = target: T1, human ROR1 (hROR1) expressed on cells; assay: flow cytometry, HCT116-hROR1 cells
human ROR1-ECD = target: T2, human ROR1-ECD (human, UniProt Q01973 30-406); assay: SPR (Biacore), antibody captured by anti-Fc, human ROR1-ECD analyte
T2 construct: Bought protein; also called hROR1; ROR1-extracellular domain

Binder	cell killing EC50, NTERA-2 cells [1]	cell killing Span, NTERA-2 cells [1]	Mino Nb-PBD, drug-conjugated 2° antibody Cell Killing IC50 [2]	Mino Nb-PBD, drug-conjugated 2° antibody Cell Killing Span [2]	Bmax (MFI) [3]	Kd [3]	Kd (human ROR1-ECD)	koff (human ROR1-ECD)	kon (human ROR1-ECD)
Conjugate 22 (D04-Y180/F404-LP11) (antibody, human IgG1, kappa, pAMF at Y180 and F404 (EU), each linked to LP11) heavy: MEVQLVESGGGLVQPGGSLRLSCAASGFNISDYDIHWVRQAPGKGLEWVGGIDPADGSTDYADSVKGRFTISADTSKNTAYLQMNSLRAEDTAVYYCARDYGVYDYWGQGTLVTVSSASTKGPSVFPLAPSSKSTSGGTAALGCLVKDYFPEPVTVSWNSGALTSGVHTFPAVLQSSGLSLSSVVTVPSSSLGTQTYICNVNHKPSNTKVDKKVEPKSCDKTHTCPPCPAPELLGGPSVFLFPPKPKDTLMISRTPEVTCVVVDVSHEDPEVKFNWYVDGVEVHNAKTKPREEQYNSTYRVVSVLTVLHQDWLNGKEYKCKVSNKALPAPIEKTISKAKGQPREPQVYTLPPSREEMTKNQVSLTCLVKGFYPSDIAVEWESNGQPENNYKTTPPVLDSDGSFLYSKLTVDKSRWQQGNVFSCSVMHEALHNHYTQKSLSLSPGK light: not shown	> 10 nM	< 20%	–	–	–	–	–	–	–
D04-Y180/F404-LP32 (printed under conjugate number 21, DAR 3.85) (antibody, human IgG1, kappa, pAMF at Y180 and F404 (EU), each linked to LP32) heavy: MEVQLVESGGGLVQPGGSLRLSCAASGFNISDYDIHWVRQAPGKGLEWVGGIDPADGSTDYADSVKGRFTISADTSKNTAYLQMNSLRAEDTAVYYCARDYGVYDYWGQGTLVTVSSASTKGPSVFPLAPSSKSTSGGTAALGCLVKDYFPEPVTVSWNSGALTSGVHTFPAVLQSSGLSLSSVVTVPSSSLGTQTYICNVNHKPSNTKVDKKVEPKSCDKTHTCPPCPAPELLGGPSVFLFPPKPKDTLMISRTPEVTCVVVDVSHEDPEVKFNWYVDGVEVHNAKTKPREEQYNSTYRVVSVLTVLHQDWLNGKEYKCKVSNKALPAPIEKTISKAKGQPREPQVYTLPPSREEMTKNQVSLTCLVKGFYPSDIAVEWESNGQPENNYKTTPPVLDSDGSFLYSKLTVDKSRWQQGNVFSCSVMHEALHNHYTQKSLSLSPGK light: not shown	> 10 nM	< 20%	–	–	–	–	–	–	–
Conjugate 1 (D04-Y180/F404-LP1) (antibody, human IgG1, kappa, pAMF at Y180 and F404 (EU), each linked to LP1) heavy: MEVQLVESGGGLVQPGGSLRLSCAASGFNISDYDIHWVRQAPGKGLEWVGGIDPADGSTDYADSVKGRFTISADTSKNTAYLQMNSLRAEDTAVYYCARDYGVYDYWGQGTLVTVSSASTKGPSVFPLAPSSKSTSGGTAALGCLVKDYFPEPVTVSWNSGALTSGVHTFPAVLQSSGLSLSSVVTVPSSSLGTQTYICNVNHKPSNTKVDKKVEPKSCDKTHTCPPCPAPELLGGPSVFLFPPKPKDTLMISRTPEVTCVVVDVSHEDPEVKFNWYVDGVEVHNAKTKPREEQYNSTYRVVSVLTVLHQDWLNGKEYKCKVSNKALPAPIEKTISKAKGQPREPQVYTLPPSREEMTKNQVSLTCLVKGFYPSDIAVEWESNGQPENNYKTTPPVLDSDGSFLYSKLTVDKSRWQQGNVFSCSVMHEALHNHYTQKSLSLSPGK light: not shown	0.085 nM	56%	–	–	–	–	–	–	–
Conjugate 21 (D04-F404-LP32) (antibody, human IgG1, kappa, pAMF at F404 (EU), linked to LP32) heavy: MEVQLVESGGGLVQPGGSLRLSCAASGFNISDYDIHWVRQAPGKGLEWVGGIDPADGSTDYADSVKGRFTISADTSKNTAYLQMNSLRAEDTAVYYCARDYGVYDYWGQGTLVTVSSASTKGPSVFPLAPSSKSTSGGTAALGCLVKDYFPEPVTVSWNSGALTSGVHTFPAVLQSSGLYSLSSVVTVPSSSLGTQTYICNVNHKPSNTKVDKKVEPKSCDKTHTCPPCPAPELLGGPSVFLFPPKPKDTLMISRTPEVTCVVVDVSHEDPEVKFNWYVDGVEVHNAKTKPREEQYNSTYRVVSVLTVLHQDWLNGKEYKCKVSNKALPAPIEKTISKAKGQPREPQVYTLPPSREEMTKNQVSLTCLVKGFYPSDIAVEWESNGQPENNYKTTPPVLDSDGSFLYSKLTVDKSRWQQGNVFSCSVMHEALHNHYTQKSLSLSPGK light: not shown	2.96 nM	97%	–	–	–	–	–	–	–
Conjugate 20 (D04-F404-LP31) (antibody, human IgG1, kappa, pAMF at F404 (EU), linked to LP31) heavy: MEVQLVESGGGLVQPGGSLRLSCAASGFNISDYDIHWVRQAPGKGLEWVGGIDPADGSTDYADSVKGRFTISADTSKNTAYLQMNSLRAEDTAVYYCARDYGVYDYWGQGTLVTVSSASTKGPSVFPLAPSSKSTSGGTAALGCLVKDYFPEPVTVSWNSGALTSGVHTFPAVLQSSGLYSLSSVVTVPSSSLGTQTYICNVNHKPSNTKVDKKVEPKSCDKTHTCPPCPAPELLGGPSVFLFPPKPKDTLMISRTPEVTCVVVDVSHEDPEVKFNWYVDGVEVHNAKTKPREEQYNSTYRVVSVLTVLHQDWLNGKEYKCKVSNKALPAPIEKTISKAKGQPREPQVYTLPPSREEMTKNQVSLTCLVKGFYPSDIAVEWESNGQPENNYKTTPPVLDSDGSFLYSKLTVDKSRWQQGNVFSCSVMHEALHNHYTQKSLSLSPGK light: not shown	> 10 nM	> 60%	–	–	–	–	–	–	–
Conjugate 17 (D04-F404-LP14) (antibody, human IgG1, kappa, pAMF at F404 (EU), linked to LP14) heavy: MEVQLVESGGGLVQPGGSLRLSCAASGFNISDYDIHWVRQAPGKGLEWVGGIDPADGSTDYADSVKGRFTISADTSKNTAYLQMNSLRAEDTAVYYCARDYGVYDYWGQGTLVTVSSASTKGPSVFPLAPSSKSTSGGTAALGCLVKDYFPEPVTVSWNSGALTSGVHTFPAVLQSSGLYSLSSVVTVPSSSLGTQTYICNVNHKPSNTKVDKKVEPKSCDKTHTCPPCPAPELLGGPSVFLFPPKPKDTLMISRTPEVTCVVVDVSHEDPEVKFNWYVDGVEVHNAKTKPREEQYNSTYRVVSVLTVLHQDWLNGKEYKCKVSNKALPAPIEKTISKAKGQPREPQVYTLPPSREEMTKNQVSLTCLVKGFYPSDIAVEWESNGQPENNYKTTPPVLDSDGSFLYSKLTVDKSRWQQGNVFSCSVMHEALHNHYTQKSLSLSPGK light: not shown	0.03 nM	77%	–	–	–	–	–	–	–
Conjugate 23 (D04 x D04-F404-LP8) (antibody, human IgG1, kappa, pAMF at F404 (EU), linked to LP8) heavy 1: MEVQLVESGGGLVQPGGSLRLSCAASGFNISDYDIHWVRQAPGKGLEWVGGIDPADGSTDYADSVKGRFTISADTSKNTAYLQMNSLRAEDTAVYYCARDYGVYDYWGQGTLVTVSSASTKGPSVFPLAPSSKSTSGGTAALGCLVKDYFPEPVTVSWNSGALTSGVHTFPAVLQSSGLYSLSSVVTVPSSSLGTQTYICNVNHKPSNTKVDKKVEPKSCDKTHTCPPCPAPELLGGPSVFLFPPKPKDTLMISRTPEVTCVVVDVSHEDPEVKFNWYVDGVEVHNAKTKPREEQYNSTYRVVSVLTVLHQDWLNGKEYKCKVSNKALPAPIEKTISKAKGQPREPQVYTLPPSREEMTKNQVSLWCLVKGFYPSDIAVEWESNGQPENNYKTTPPVLDSDGSFLYSKLTVDKSRWQQGNVFSCSVMHEALHNHYTQKSLSLSPGK heavy 2: MEVQLVESGGGLVQPGGSLRLSCAASGFNISDYDIHWVRQAPGKGLEWVGGIDPADGSTDYADSVKGRFTISADTSKNTAYLQMNSLRAEDTAVYYCARDYGVYDYWGQGTLVTVSSASTKGPSVFPLAPSSKSTSGGTAALGCLVKDYFPEPVTVSWNSGALTSGVHTFPAVLQSSGLYSLSSVVTVPSSSLGTQTYICNVNHKPSNTKVDKKVEPKSCDKTHTCPPCPAPELLGGPSVFLFPPKPKDTLMISRTPEVTCVVVDVSHEDPEVKFNWYVDGVEVHNAKTKPREEQYNSTYRVVSVLTVLHQDWLNGKEYKCKVSNKALPAPIEKTISKAKGQPREPQVYTLPPSREEMTKNQVSLSCAVKGFYPSDIAVEWESNGQPENNYKTTPPVLDSDGSFLVSKLTVDKSRWQQGNVFSCSVMHEALHNHYTQKSLSLSPGK light: not shown	0.022 nM	83%	–	–	–	–	–	–	–
Conjugate 19 (D04-F404-LP30) (antibody, human IgG1, kappa, pAMF at F404 (EU), linked to LP30) heavy: MEVQLVESGGGLVQPGGSLRLSCAASGFNISDYDIHWVRQAPGKGLEWVGGIDPADGSTDYADSVKGRFTISADTSKNTAYLQMNSLRAEDTAVYYCARDYGVYDYWGQGTLVTVSSASTKGPSVFPLAPSSKSTSGGTAALGCLVKDYFPEPVTVSWNSGALTSGVHTFPAVLQSSGLYSLSSVVTVPSSSLGTQTYICNVNHKPSNTKVDKKVEPKSCDKTHTCPPCPAPELLGGPSVFLFPPKPKDTLMISRTPEVTCVVVDVSHEDPEVKFNWYVDGVEVHNAKTKPREEQYNSTYRVVSVLTVLHQDWLNGKEYKCKVSNKALPAPIEKTISKAKGQPREPQVYTLPPSREEMTKNQVSLTCLVKGFYPSDIAVEWESNGQPENNYKTTPPVLDSDGSFLYSKLTVDKSRWQQGNVFSCSVMHEALHNHYTQKSLSLSPGK light: not shown	0.043 nM	83%	–	–	–	–	–	–	–
SRP2188-G02 (antibody, IgG1, V domains shown, IgG1 with trastuzumab LC; HIS- and FLAG-tagged; cell-free expressed) VH: EVQLVESGGGLVQPGGSLRLSCAASGFNIVGYDIHWVRQAPSKGLEWVGGIDPNDGATDYADSVKGRFTISADTSKNTAYLQMNSLRAEDTAVYYCARDYGVFDYWGQGTLVTVSS VL: not shown	–	–	0.00047 nM	74%	8920 MFI	0.02 nM	0.49 nM	0.000443 s⁻¹	905000 M⁻¹ s⁻¹
SRP2188-F06 (antibody, IgG1, V domains shown, IgG1 with trastuzumab LC; HIS- and FLAG-tagged; cell-free expressed) VH: EVQLVESGGGLVQPGGSLRLSCAASGFNILDYDIHWVRQAPGKGLEWVGGIDPDDGATDYADSVKGRFTISADTSKNTAYLQMNSLRAEDTAVYYCARDYGVFDYWGQGTLVTVSS VL: not shown	–	–	0.00055 nM	75%	10200 MFI	0.03 nM	0.384 nM	0.000357 s⁻¹	931000 M⁻¹ s⁻¹
SRP2188-G03 (antibody, IgG1, V domains shown, IgG1 with trastuzumab LC; HIS- and FLAG-tagged; cell-free expressed) VH: EVQLVESGGGLVQPGGSLRLSCAASGFNIVDYDIHWVRQAPGKGLEWVVGIDPRDGSTDYADSVKGRFTISADTSKNTAYLQMNSLRAEDTAVYYCARDFGVFDYWGQGTLVTVSS VL: not shown	–	–	0.00097 nM	70%	8960 MFI	0.03 nM	0.373 nM	0.000316 s⁻¹	846000 M⁻¹ s⁻¹
